Experiments:
[1] = biological target: T1, heat shock factor 1 (HSF1) (Homo sapiens, UniProt Q00613); assay: intrinsic tryptophan fluorescence titration, Scatchard plot; supported by EMSA, CD, light scattering; type: binding
T1 construct: purified full length HSF1, N-terminal his6 tag, expressed in E. coli
T1 sequence (Q00613 1-529): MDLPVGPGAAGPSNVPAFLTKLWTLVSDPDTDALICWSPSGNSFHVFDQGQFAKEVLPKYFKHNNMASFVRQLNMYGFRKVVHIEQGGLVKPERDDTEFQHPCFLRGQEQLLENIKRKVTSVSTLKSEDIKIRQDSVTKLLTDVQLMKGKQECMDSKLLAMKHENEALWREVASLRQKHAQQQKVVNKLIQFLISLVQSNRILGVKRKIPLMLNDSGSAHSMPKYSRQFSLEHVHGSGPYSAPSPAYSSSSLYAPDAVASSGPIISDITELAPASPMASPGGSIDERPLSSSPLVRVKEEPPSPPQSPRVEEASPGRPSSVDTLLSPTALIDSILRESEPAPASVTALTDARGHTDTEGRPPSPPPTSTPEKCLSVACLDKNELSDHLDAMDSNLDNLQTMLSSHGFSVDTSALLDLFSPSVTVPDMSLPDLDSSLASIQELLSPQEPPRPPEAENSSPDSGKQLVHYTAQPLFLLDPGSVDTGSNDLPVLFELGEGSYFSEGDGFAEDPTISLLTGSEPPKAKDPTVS

[2] = tested on: his6-HSF1 (codon-optimized) (Homo sapiens); assay: EMSA; settings: Fluorescence: 2 uM HSF1, 0-10 uM HSE, room temperature, buffer not given; EMSA: 0.5 uM protein or 50 ug WCE, 1 ng 32P-HSE, buffer per cited reference, 4% PAGE
[3] = tested on: his6-HSF1 (codon-optimized) (Homo sapiens); assay: tryptophan fluorescence quenching; settings: room temperature, Fluorescence: 2 uM HSF1, 0-10 uM HSE, buffer not given, EMSA: 0.5 uM protein or 50 ug WCE, 1 ng 32P-HSE, buffer per cited reference, 4% PAGE

| Molecule | Kd [1] | binding signal (fold affinity increase with AZD) [2] | Kd ([3]; 5 uM azadiradione) | Kd ([3]; no AZD) |
| --- | --- | --- | --- | --- |
| CC(=O)O[C@@H]1C[C@H]2C(C)(C)C(=O)C=C[C@]2(C)[C@H]2CC[C@]3(C)C(=CC(=O)[C@H]3c3ccoc3)[C@@]21C [AZD, azadiradione] | 1.35 µM | – | – | – |
| HSE (proximal HSE of hsp70A1A promoter) | – | > 2 | 0.35 µM | 0.8 µM |

Source: paper PMC5346638, “Azadiradione ameliorates polyglutamine expansion disease in Drosophila by potentiating DNA binding activity of heat shock factor 1” (Oncotarget, 2016)
